# Test results published in patent publication US20210261643A1, “INHIBITORS OF P-TEFB MEDIATED TRANSCRIPTION” (The Regents of the University of California, priority 2018, published 2021).
# B1: HT1 (protein)
# chain: KKKHRRRPSKKKRHWKPYYKLTWEEKKKFDEKQSLRASRIRAEMFAKGQPVAPYNTTQFLMDDHDQEEPDLVDMEPVDPYLEPWKHPGSQPRTACNNCYCKKCCFHCYACFTRKGLGISYG
# modifications: left off: small tags and cut ends
# What was measured:
# [1] = test system: HIV promoter (P-HIV) transactivation by Tat; assay: Luc assay with replication-defective HIV-1 molecular clone pNL43ΔenvLuc in 293T cells; type: cell-based; details: transient expression
# [2] = test system: HIV-1 NL43; assay: Spreading infection with HIV-1 NL43, Gag p24 ELISA in supernatants; type: cell-based; details: 4 dpi
# Source text: FIGS. 5A, 5B, 5C, and 5D. Stable expression of HT1 inhibits HIV replication. FIG. 5A. Stable expression of HT1 inhibits HIV-1 replication in C-HT cells. 1E+06 HT1-expressing CEM-HT cells and e control CEM cells were challenged by HIV-1 NL43 infection. FIG. 5B. Stable expression of HT1 inhibits HIV-1 replication in MO-HT cells. 1E+06 HT1-expressing MOLT4-HT cells, and control MOLT4 cells were challenged by HIV-1 NL43 infection. FIG. 5C. Stable expression of HT1 inhibits HIV-1 replication in MT-HT cells. 1E+06 HT1-expressing MT4-HT cells, and control MT4 cells were challenged by HIV-1 NL43 infection. In each of FIGS. 5A, 5B, and 5C, virus production was assessed by Gag p24 ELISA in supernatants when cells were passaged at days 0, 2 and 4, and plotted. Error bars represent standard deviation from triplicate experiments. FIG. 5D: Stable expression of HT1 doesn't inhibit early steps of HIV-1 infection in C-HT, MO-HT, and MT-HT cells. Single-round infection assays were performed in the same conditions as in FIG. 5A-C above, but using replication-defective HXB2 Env-pseudotyped HIV-1 NL43ΔenvLuc. The relative amount of HIV DNA integrated in the cells' genomic DNA was assessed after 24 h by qPCR. Error bars represent standard deviation from triplicate experiments.
# On 2 dpi, virus production was detected from CEM, MOLT4 and MT4 cells and reached around 20 (CEM, MT4) to 110 (MOLT4) ng/mL p24 concentration in the supernatant on 4 dpi.
molecule,measurement,setting,value
B1,decrease in Luc expression,[1],3 fold
same,p24 concentration in supernatant,[2]; C-HT cells,5.1
same,p24 concentration in supernatant,[2]; MO-HT cells,12 ng/mL
same,p24 concentration in supernatant,[2]; MT-HT cells,1.3 ng/mL
